Measurements reported in patent publication US20250369983A1.

Target: full length gp41 HIV protein (Abcam) (human immunodeficiency virus-1 (HIV-1))
Test: ELISA titration: plates coated with 1 µg/mL antigen, 2F5 in 4-fold dilutions; y axis without label (absorbance)

## 2F5, broadly neutralizing human monoclonal antibody (Polymun Scientific)
  EC50 (read off the curve): 0.1 µg/mL
